From patent US20100260775A1 (Pfizer, published 2010)
Like-named read-outs stand apart in the source and are kept apart here.

B1: 3C (Fab) (Fab, V domains shown)
VH: QVQLQESGPGLVKPSETLSLTCTVSGFSLIGYDLNWIRQPPGKGLEWIGIIWGDGTTDYNSAVKSRVTISKDTSKNQFSLKLSSVTAADTAVYYCARGGYWYATSYYFDYWGQGTLVTVS
VL: DIQMTQSPSSLSASVGDRVTITCRASQSISNNLNWYQQKPGKAPKLLIYYTSRFHSGVPSRFSGSGSGTDFTFTISSLQPEDIATYYCQQERTLPYTFGQGTKLEIKR
B2: 8L2-6D5 (CDR-grafted antibody with framework mutation V71K) (Fab, V domains shown)
VH: QVQLQESGPGLVKPSETLSLTCTVSGFSLIGYDINWIRQPPGKGLEWIGMIWGDGTTDYNSALKSRVTISKDTSKNQFSLKLSSVTAADTAVYYCARGGYYYGTSYYFDYWGQGTLVTVS
VL: DIQMTQSPSSLSASVGDRVTITCRASQDISNHLNWYQQKPGKAPKLLIYYISRFHSGVPSRFSGSGSGTDFTFTISSLQPEDIATYYCQQSKTLPYTFGQGTKLEIKR
B3: antibody E3 (Fab) (Fab, V domains shown)
VH: QVQLQESGPGLVKPSETLSLTCTVSGFSLIGYDLNWIRQPPGKGLEWIGIIWGDGTTDYNSAVKSRVTISKDTSKNQFSLKLSSVTAADTAVYYCARGGYWYATSYYFDYWGQGTLVTVS
VL: DIQMTQSPSSLSASVGDRVTITCRASQSISNNLNWYQQKPGKAPKLLIYYTSRFHSGVPSRFSGSGSGTDFTFTISSLQPEDIATYYCQQEHTLPYTFGQGTKLEIKR
B4: H19-L129 (Fab, V domains shown)
VH: QVQLQESGPGLVKPSETLSLTCTVSGFSLIGYDLNWIRQPPGKGLEWIGIIWGDGTTDYNSAVKSRVTISKDTSKNQFSLKLSSVTAADTAVYYCARGGYYYGTSYYFDYWGQGTLVTVS
VL: DIQMTQSPSSLSASVGDRVTITCRASQSISNNLNWYQQKPGKAPKLLIYYTSRFHSGVPSRFSGSGSGTDFTFTISSLQPEDIATYYCQQSKTLPYTFGQGTKLEIKR

How the values were obtained:
Assay in all cases: cell-based or functional assay
human NGF = human NGF (human, UniProt P01138 122-241, limits assumed)
rat NGF [1] = target: T1, rat NGF (rat, UniProt P25427 122-241, limits assumed)
rat NGF [2] = target: T1, rat NGF; remark: listed apart in the source
rat NGF [3] = target: T1, rat NGF; remark: listed apart in the source

Chain of human NGF (P01138 122-241 limits assumed): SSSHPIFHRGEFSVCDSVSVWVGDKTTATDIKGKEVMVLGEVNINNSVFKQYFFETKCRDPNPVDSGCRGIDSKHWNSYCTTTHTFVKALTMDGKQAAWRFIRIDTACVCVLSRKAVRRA
T1 sequence (P25427 122-241 limits assumed): as the sequence (P01138 122-241 limits assumed) above, with S3T, I6V, R9M, M37T, D60A, D65E, M92T, G94D, V117A, A120G counted along it

| Molecule | IC50, inhibition of human NGF-dependent survival of mouse E13.5 trigeminal neurons, 1.5 pM NGF (human NGF) [pM] | IC50, inhibition of human NGF-dependent survival of mouse E13.5 trigeminal neurons, 15 pM NGF (human NGF) [pM] | IC50, inhibition of rat NGF-dependent survival of mouse E13.5 trigeminal neurons, 1.5 pM NGF (rat NGF [1]) [pM] | IC50, inhibition of rat NGF-dependent survival of mouse E13.5 trigeminal neurons, 15 pM NGF (rat NGF [1]) [pM] | IC50, inhibition of rat NGF-dependent survival of mouse E13.5 trigeminal neurons, 1.5 pM NGF (rat NGF [2]) [pM] | IC50, inhibition of rat NGF-dependent survival of mouse E13.5 trigeminal neurons, 15 pM NGF (rat NGF [2]) [pM] | IC50, inhibition of NGF-dependent survival of mouse E13.5 trigeminal neurons, 15 pM rat NGF (rat NGF [3]) [pM] |
| --- | --- | --- | --- | --- | --- | --- | --- |
| mouse antibody 911 (Fab) | 63.5 | 322 | 34.6 | 161 | – | – | – |
| B1 | 5.6 | 80.9 | – | – | 6 | 31.6 | – |
| B2 | 462 | 1580 | – | – | 169 | 730 | – |
| B3 | < 1.2 | < 21 | – | – | < 1.3 | < 8.3 | ~31.6 |
| B4 | 9.6 | 60.1 | – | – | 6 | 31 | – |
